Source: the supplement of paper PMC9170038

Test system: MS2 coat protein
Assay: apparent KD of MS2 coat protein; designed switch direction (-1 OFF switch, 1 ON switch): 1; higher = weaker reporter binding
Outline: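 For each design, the apparent KD is the median over clusters of curves fitted to normalised cluster fluorescence. Clusters held RNA switches with common flanks, transcribed on Illumina chips by stalled E. coli RNA polymerase. These were titrated with SNAP-549-labelled MS2 coat protein, doubling from 0.7 or 1.5 nM to 3 µM, without input, with 200 uM small-molecule ligand, or with an oligonucleotide input.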

[1] = Eterna round: R95, input ligand: FMN 200 uM
[2] = Eterna round: R95, input ligand: microRNA oligo, concentration not stated
[3] = Eterna round: R95, input ligand: none
[4] = input ligand: microRNA oligo, concentration not stated

Sequence | apparent KD of MS2 coat protein [1] [nM] | apparent KD of MS2 coat protein [2] [nM] | apparent KD of MS2 coat protein [3] [nM] | apparent KD of MS2 coat protein (input ligand: FMN 200 uM) [nM] | apparent KD of MS2 coat protein [4] [nM] | apparent KD of MS2 coat protein (input ligand: none) [nM]
GUUAAACAUGAGGAUCACCCAUGUCAUCUAAGUCGAGGAUAUGGGAAUUAAUUAAUUAAACCAGAAGGCGAAAAUU [Mat - Same State 1 - D95] (puzzle: Same State 1) | 59.7 | 756 | 1110 |  |  | 
UGUCCAGCCUGAGCUGGACAAAAGCAUGUACAUGAGGAUCACCCAUGUUCAUGUACAAGCUUUUUGCUCGUCUUAAG [salish99_208a_r3_032] (puzzle: Sensor for hsa-mir-208a) | 547 | 13.9 | 533 |  |  | 
GCUCGGCUGAUGGCCCACAUGAGGAUCACCCAUGUGAGUGGGCAGGAUAUCUAGAUUAAGGAUGUAGAGAAGGGCCUACCGAGC [SameState NG3 #35] (Eterna round: R96, puzzle: Same State NG 3) |  |  |  | 443 | 106 | 244
AUUGCUUACGCAGGAUAUGAUGCGAAAAUUGCGUCAGAAGGGUGAAGUGACUCGUUGCAACAAGACAUGAGGAUCACCCAUGUC [SameState NG1 #92] (Eterna round: R96, puzzle: Same State NG 1) |  |  |  | 135 | 116 | 199
CAUCAUGCGUCUAAGGAUAUGUCUCACAAGACAUGAGGAUCACCCAUGUAGAAUAAAUAAAUGAUGCAGAAGGUGGAGCGCAUGC [Erzausis] (Eterna round: R96, puzzle: Same State 2) |  |  |  |  | 253 | 
GCCAUCGCAUGAGGAUAUGGCACCGUUUCGGUGCCAGAAGGCAUGUCAUAAGACAUGAGGAUCACCCAUGUAGUUAAGAUGGCA [JL Fiskers NG1ss - 33 mod 8] (Eterna round: R96, puzzle: Same State NG 1) |  |  |  | 31.4 | 521 | 751
CUAAAACAUGAGGAUCACCCAUGUCAACAAAGUCGAGGAUAUGGGCAAAUAAAAUAAGAACCAGAAGGCGAAUAAU [salish99_SS1_r3_012] (puzzle: Same State 1) | 42.3 | 422 | 485 |  |  | 
CUGCUCGGGUGAGGAUAUGCCGCCGUUUCGGCUGCAGAAGGUGCUACGUUACAUGAGGAUCACCCAUGUCUCUGUUGUUUCGUU [salish99_SSNG1_r04_965] (Eterna round: R96, puzzle: Same State NG 1) |  |  |  | 72.1 | 42.8 | 62.2
AGGCUCAGAGCAGGAUAUACGUGGUCACAUGAGGAUCACCCAUGUCUCGAGCUUCGGCUCGAGGCGUAGAAGGGCUCUGAGCCA [SSNG2/6-B1] (Eterna round: R96, puzzle: Same State NG 2) |  |  |  | 140 | 204 | 330
GCCAACUUAUGAGGAUAUGGCACCUUAUUGGUGCCAGAAGGCAUGUCAAUUGACAUGAGGAUCACCCAUGUAUUAUAGUUGGCA [Fiskers NG1ss - 21] (Eterna round: R96, puzzle: Same State NG 1) |  |  |  |  | 326 | 
UGGCUGGUGCUAGGAUAUACAUGAGGAAUCCUCGUAGAAGGAGCACGACAUGAGGAUCACCCAUGUAGCCGUCCGUAGACGGCU [salish99_SSNG1_r04_007] (Eterna round: R96, puzzle: Same State NG 1) |  |  |  | 284 | 156 | 112
GAGUAGUUGAAAGGAUAUUGAUUAUUGUAGGAUCAAGAAGGUUUUAACAUGAGGAUCACCCAUGUAGGACUAUAUAUGUGAAUA [Parity 95 - Jieux - Same State NG 1] (Eterna round: R96, puzzle: Same State NG 1) |  |  |  | 12.2 | 12.3 | 16
AUACUGUACCGAGGAUAUCCAUUUUUCUAACAUGAGGAUCACCCAUGUGAAGGGAUUGAGUUGUAGGAGAAGGCGGUAUAGUAU [JR_SSNG2_Sub062] (Eterna round: R96, puzzle: Same State NG 2) |  |  |  | 14.8 | 11.6 | 21.5
AUUAUACAUGAGGAUCACCCAUGUAAUUAAUCUAGUAAGAUCUAGGAUAUCAGCUCGAAUAGAGCUGAGAAGGAGAUCACAUGU [SSNG3/20-D1] (Eterna round: R96, puzzle: Same State NG 3) |  |  |  |  | 45.8 | 
CGUAGGUAGCUGGAGGAUAUCUGAGUGGUAACAUGAGGAUCACCCAUGUGAUGUGAGGAACAUGAGGAGAAGGCUAGCUGCCUGC [JL-ss2-3.13 JL mod] (puzzle: Same State 2) | 21.4 | 42.2 | 43.5 |  |  | 
CUGAGAAGUCAAGGAUAUCACGUCGAUUAGACGUGAGAAGGUGAUCAGUACAUGAGGAUCACCCAUGUGUUACAUGGAACUCAG [Brourd's SSNG1/1-A2 mod 8] (Eterna round: R96, puzzle: Same State NG 1) |  |  |  | 1660 | 367 | 1110
UUGCGCUGUCGAGAGGAUAUGCGGUGUUGGACAUGAGGAUCACCCAUGUUAGCGAUAGCUUUACGGUAGAAGGCUCUUCAGCUGC [salish99_ss2_r3_097] (puzzle: Same State 2) |  | 99 |  |  |  | 
UACAAUCUAUCUGAGGAUAUCAUGCAUUACACAUGAGGAUCACCCAUGUGCAGGAAAACUGCAUAUGAGAAGGCAGAUAGAUUGU [salish99_ss2_r3_066] (Eterna round: R96, puzzle: Same State 2) |  |  |  | 15.5 | 328 | 411
AUAAGUUUGAUGCUCGUCCCUCCGUACAGACAUGAGGAUCACCCAUGUAGUCGGGAAGUAGCCCGGCCAGUAUGGCC [Biraza] (puzzle: Sensor for hsa-mir-208a) | 15.9 | 12.6 | 15 |  |  | 
GGAUUGGAGGCAGGAUAUGGGCUCAGAACAUGAGGAUCACCCAUGUAAAACGGCGCGAUGCGCCACCAGAAGGGCCUCCGAUCG [Tiaonbira] (Eterna round: R96, puzzle: Same State NG 2) |  |  |  | 12.8 | 23.8 | 37.3
UUAAUGAUGAUAGGAUAUACAUGAGGAAUUCUCGUAGAAGGAUCAUGACAUGAGGAUCACCCAUGUAUCGCUCCGUAGAGCGUA [JL SSNG1 1.14] (Eterna round: R96, puzzle: Same State NG 1) |  |  |  | 934 | 233 | 676
GGCAGACAUGAGGAUCACCCAUGUCGGCCGUUAGGAGGAUAUCGGUGAUAUCUGUCUCGCCGAGAAGGUUUAAUUA [Onaterleza] (puzzle: Same State 1) |  | 9.71 |  |  |  | 
ACGCAGCUGGGUGAGGAUAUUGGUGGUACAACAUGAGGAUCACCCAUGUCCGAAGCUCGGACCUCCGAGAAGGCGCCCGGCUGCG [Soinraesar Omei Mod 4] (puzzle: Same State 2) | 39.7 | 269 | 912 |  |  | 
GUGGUCAGACAUGAGGAUCACCCAUGUGGAAUAAAUAACGUCAAGGAUAUACAAUAUAGGAUAUAGUAGAAGGUGAGAUUGGUG (Eterna round: R96, puzzle: Same State NG 3) |  |  |  |  | 94.8 | 
